US20220275101A1, “Use of Approved Anti-CD38 Antibody Drug Product to Treat Light Chain Amyloidosis” (Janssen Biotech, Inc., priority 2021, published 2022)
Marks after values point to notes of the source that are not given here.

Columns and labels:
[1] = Daratumumab pharmacokinetics in patients with multiple myeloma; format: in vivo, human
[2] = system: relapsed or refractory multiple myeloma; assay: COLUMBA monotherapy, efficacy; format: in vivo, human
Text: The major efficacy outcome measures were ORR by the IMWG response criteria and maximum Ctrough at pre-dose Cycle 3 Day 1 [see Clinical Pharmacology (12.3)]. Randomization was stratified by body weight, myeloma type, and number of prior lines of therapy.

[3] = COLUMBA monotherapy, safety (relapsed/refractory multiple myeloma)
Description: FASPRO 1,800 mg/30,000 units administered subcutaneously or daratumumab 16 mg/kg administered intravenously; each administered once weekly from weeks 1 to 8, once every 2 weeks from weeks 9 to 24 and once every 4 weeks starting with week 25 until disease progression or unacceptable toxicity.

[4] = target: T1, CD38 on red blood cells (RBCs) (Homo sapiens, UniProt P28907); assay: Interference with Indirect Antiglobulin Test (Indirect Coombs test)
T1 construct: endogenous in cells; host or cells: red blood cells (reagent RBCs used in blood-bank compatibility testing)
Text: Daratumumab binds to CD38 on red blood cells (RBCs) and results in a positive Indirect Antiglobulin Test (Indirect Coombs test). Daratumumab-mediated positive indirect antiglobulin test may persist for up to 6 months after the last daratumumab administration. Daratumumab bound to RBCs masks detection of antibodies to minor antigens in the patient's serum [see References (15)]. The determination of a patient's ABO and Rh blood type are not impacted [see Drug Interactions (7.1)].
Daratumumab binds to CD38 on RBCs and interferes with compatibility testing, including antibody screening and cross matching. Daratumumab interference mitigation methods include treating reagent RBCs with dithiothreitol (DTT) to disrupt daratumumab binding [see References (15)] or genotyping. Since the Kell blood group system is also sensitive to DTT treatment, supply K-negative units after ruling out or identifying alloantibodies using DTT-treated RBCs.

[5] = Daratumumab pharmacokinetics in patients with light chain (AL) amyloidosis; format: in vivo, human
[6] = Daratumumab pharmacokinetics after DARZALEX FASPRO, population not specified or pooled; format: in vivo, human; conditions: DARZALEX FASPRO as monotherapy or combination therapy
[7] = Hyaluronidase subcutaneous exposure and toxicity in monkeys; format: in vivo
Description: No carcinogenicity, genotoxicity, or fertility studies were conducted for recombinant human hyaluronidase. […] As hyaluronidase is a recombinant form of the endogenous human hyaluronidase, no carcinogenicity, mutagenesis, or effects on fertility are expected.

[8] = Hyaluronidase developmental toxicity in mice; format: in vivo
Text: There were no effects on pre- and post-natal development through sexual maturity in offspring of mice treated daily from implantation through lactation with 990,000 U/kg hyaluronidase subcutaneously, which is 134 times higher than the human doses.

[9] = Hyaluronidase effect on permeability of the subcutaneous tissue
Text: Hyaluronan is a polysaccharide found in the extracellular matrix of the subcutaneous tissue. It is depolymerized by the naturally occurring enzyme hyaluronidase. Unlike the stable structural components of the interstitial matrix, hyaluronan has a half-life of approximately 0.5 days. Hyaluronidase increases permeability of the subcutaneous tissue by depolymerizing hyaluronan. In the doses administered, hyaluronidase in DARZALEX FASPRO acts locally. The effects of hyaluronidase are reversible and permeability of the subcutaneous tissue is restored within 24 to 48 hours.

[10] = monkeys, 22,000 U/kg/week subcutaneously for 39 weeks

Molecule: Intravenous Daratumumab: daratumumab 16 mg/kg administered intravenously, comparator arm in COLUMBA
- Observed mean ± SD max Ctrough after 8th dose ([1]; patients with multiple myeloma): 522 ± 226^a, b μg/mL
- CR or better, % [2]: 2.7%
- Median progression-free survival [2]: 6.1 months
- Partial response (PR), % [2]: 20%
- Very good partial response (VGPR), % [2]: 14%
- Overall response (sCR + CR + VGPR + PR), % ([2]; intent-to-treat population): 37%
- Back pain, All Grades ([3]; monotherapy): 12%
- Back pain, Grade ≥ 3 ([3]; monotherapy): 3^# %
- Chills, All Grades ([3]; monotherapy): 12%
- Chills, Grade ≥ 3 ([3]; monotherapy): 1^# %
- Cough, All Grades ([3]; monotherapy): 14%
- Cough, Grade ≥ 3 ([3]; monotherapy): 0^ %
- Diarrhea, All Grades ([3]; monotherapy): 11%
- Diarrhea, Grade ≥ 3 ([3]; monotherapy): 0.4^# %
- Dyspnea, All Grades ([3]; monotherapy): 11%
- Dyspnea, Grade ≥ 3 ([3]; monotherapy): 1^# %
- Fatigue, All Grades ([3]; monotherapy): 16%
- Fatigue, Grade ≥ 3 ([3]; monotherapy): 2^# %
- Infusion reactions, All Grades ([3]; monotherapy): 34%
- Infusion reactions, Grade ≥ 3 ([3]; monotherapy): 5^# %
- Nausea, All Grades ([3]; monotherapy): 11%
- Nausea, Grade ≥ 3 ([3]; monotherapy): 0.4^# %
- Pneumonia, All Grades ([3]; monotherapy): 10%
- Pneumonia, Grade ≥ 3 ([3]; monotherapy): 6^@ %
- Pyrexia, All Grades ([3]; monotherapy): 13%
- Pyrexia, Grade ≥ 3 ([3]; monotherapy): 1^# %
- Upper respiratory tract infection, All Grades ([3]; monotherapy): 22%
- Upper respiratory tract infection, Grade ≥ 3 ([3]; monotherapy): 1^# %
- Decreased hemoglobin, All Grades ([3]; worsening from baseline): 39%
- Decreased hemoglobin, Grades 3-4 ([3]; worsening from baseline): 16%
- Decreased leukocytes, All Grades ([3]; worsening from baseline): 57%
- Decreased leukocytes, Grades 3-4 ([3]; worsening from baseline): 14%
- Decreased lymphocytes, All Grades ([3]; worsening from baseline): 56%
- Decreased lymphocytes, Grades 3-4 ([3]; worsening from baseline): 36%
- Decreased neutrophils, All Grades ([3]; worsening from baseline): 43%
- Decreased neutrophils, Grades 3-4 ([3]; worsening from baseline): 11%
- Decreased platelets, All Grades ([3]; worsening from baseline): 45%
- Decreased platelets, Grades 3-4 ([3]; worsening from baseline): 14%

Molecule: Daratumumab: IgG1κ human monoclonal antibody that binds CD38; heavy chain SEQ ID NO: 12, light chain SEQ ID NO: 13
- persistence of positive indirect antiglobulin test after the last administration [4]: up to 6 months
- Indirect Antiglobulin Test (Indirect Coombs test) result ([4]; binding to CD38 on RBCs): positive
- estimated mean volume of distribution, peripheral compartment ([1]; multiple myeloma): 3.8 L
- estimated mean (CV %) elimination half-life associated with linear clearance ([1]; multiple myeloma, CV 22%): 20 days
- estimated mean (CV) volume of distribution for the central compartment ([1]; multiple myeloma, CV 37%): 5.2 L
- estimated mean (CV %) linear clearance ([1]; multiple myeloma, CV 59%): 119 mL/day
- estimated mean volume of distribution ([5]; CV 28%): 10.8 L
- estimated mean (CV %) linear clearance ([5]; CV 42%): 210 mL/day
- estimated mean (CV %) elimination half-life associated with linear clearance ([5]; CV 74%): 28 days
- effect of sex, age (33 to 92 years), renal impairment (CLcr 15 to 89 mL/min) and mild hepatic impairment on pharmacokinetics [6]: no clinically meaningful effect

B1: hyaluronidase: recombinant human hyaluronidase rHuPH20, SEQ ID NO: 22, residues 36-482 of wild type human hyaluronidase (protein, listed as Homo sapiens)
chain: LNFRAPPVIPNVPFLWAWNAPSEFCLGKFDEPLDMSLFSFIGSPRINATGQGVTIFYVDRLGYYPYIDSITGVTVNGGIPQKISLQDHLDKAKKDITFYMPVDNLGMAVIDWEEWRPTWARNWKPKDVYKNRSIELVQQQNVQLSLTEATEKAKQEFEKAGKDFLVETIKLGKLLRPNHLWGYYLFPDCYNHHYKKPGYNGSCFNVEIKRNDDLSWLWNESTALYPSIYLNTQQSPVAATLYVRNRVREAIRVSKIPDAKSPLPVFAYTRIVFTDQVLKFLSQDELVYTFGETVALGASGIVIWGTLSIMRSMKSCLLLDNYMETILNPYIINVTLAAKMCSQVLCQEQGVCIRKNWNSSDYLHLNPDNFAIQLEKGGKFTVRGKPTLEDLEQFSEKFYCSCYSTLSCKEKADVKDTDAVDVCIADGVCIDAFLKPPMETEEPQIFY
- systemic exposure of hyaluronidase ([7]; monkeys, 22,000 U/kg subcutaneously (12 times the human dose)): No systemic exposure of hyaluronidase was detected
- effects on reproductive tissues and function [7, 10]: no effects
- systemic exposure of hyaluronidase [7, 10]: no systemic exposure
- effects on post-natal development through sexual maturity in offspring ([8]; mice treated daily during lactation, 990,000 U/kg subcutaneously): no effects
- effects on pre- and post-natal development through sexual maturity in offspring ([8]; mice treated daily from implantation through lactation, 990,000 U/kg subcutaneously): no effects
- effects on embryo-fetal development ([8]; pregnant mice, 330,000 U/kg subcutaneously daily during organogenesis): no effects
- time until permeability of the subcutaneous tissue is restored [9]: 24 to 48 h
